Laboratory results: the supplement of paper PMC9170038

System: K4 kissing-loop RNA reporter
Test: apparent KD of K4 kissing-loop reporter; higher = weaker reporter binding
Settings: Eterna round: R107
Method: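 RNA-MaP round R107: designed RNA switches with theophylline, tryptophan, arginine or FMN aptamers are transcribed on-chip within common flanks. They are titrated with a labelled K4 kissing-loop RNA reporter in RNA-MaP buffer (100 mM Tris pH 7.5, 80 mM KCl, 4 mM MgCl2), without ligand or with the indicated ligand. Median apparent KD per design.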

[1] = input ligand: theophylline 20 uM
[2] = input ligand: tryptophan 2.4 mM
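Note: bound reporter read as fluorescence of individual clusters on recovered sequencing chips by microscopy, with normalized cluster intensities fitted with a binding model.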

Sequence | apparent KD of K4 kissing-loop reporter (input ligand: FMN 200 uM) [nM] | apparent KD of K4 kissing-loop reporter (input ligand: arginine 13.2 mM) [nM] | apparent KD of K4 kissing-loop reporter (input ligand: none) [nM] | apparent KD of K4 kissing-loop reporter [1] [nM] | apparent KD of K4 kissing-loop reporter [2] [nM]
AUUAAUUUCAGAGGAUAUCGUUAUUUUUUAUAGUAUAUUCAAUUAUGCAGUGAUGUUGCUAUUAAUCGAGAAGGCUGAUUUAUAA [JR_ExcFMNB_Sub002] | 179 | 204 | 156 | 250 | 112
GUGCAGUGAUGUUGCACGAGGAAAGACGAUACCAGCCGUAAAUAAGGCCCUUGGCAGCGUAGGCUAGCAUAAAGUAUGCCAGUCU [Geleerra] | 117 | 112 | 121 | 113 | 96.5
UCGAUGGCCAGCGAUACCAGCCCAGUGAUGUUGGGCACAUGGUUGCGGGAAAUCCCAUUGGGCCCUUGGCAGCGCUUGCAUGGGU [Dizaisa] | 148 | 121 | 140 | 120 | 125
AUAUAGAGUGAUGUUCAUGAGUAUUUCGAAGGAGCGCUAAAUAAGGCAGGUAGGUCGCGGAAAAUAUAUAUAUAGAUAUAUAUAU [KL-SSArg-A29] | 168 | 351 | 535 | 665 | 280
UGCACGGGCUCGGCCGCCACUCCAGCGGGUCGCAAGGUCCGCUACUGAGUGAUGUUCGGUUGGAGGAGGACCGGGAGCCCGUGCG [#2 Exclusion - Tryptophan B Attempt #31 (HarryS)] | 146 | 114 | 133 | 139 | 126
UCGGCAAAGUCGGCCGCCACUCCGGGCCCUAUAAAUGGGCGCAGUGAUGUUGCGGCUAGGCCUCUGAGGACCGGGACUUUGUAGA [Gebive] | 114 | 91.7 | 112 | 146 | 204
AGUAAUCUCACGGCCGCCACUGUUUAUUGUUUUUAUAGUUAUAAAUCUUGCCAGUGAUGUUGGUACAGGACCGGGUGAGUUAAUA [#25 K4 Tryptophan B Same State] | 357 | 360 | 402 | 353 | 316
GUGACGCGGACGGCCGCCACUCCGGUGACCGCUCCGUGCCGCCCUGCGCGAGUGAUGUUCGCCAGGAGGACCGGGUCCGACUUUA [Soesente] | 107 | 101 | 106 | 89.4 | 96.3
AAACAUUGGUCUGAUACCAGCUUGAUCGGUAAACGAUCUACUGGAGUGAUGUUCCUAAAUAGCCCUUGGCAGCAGACCGAUGAAA [MAT - Same State Theophlline B - Mod of Eli - D6] | 187 | 172 | 177 | 132 | 181
UGGAUAUAGUGAUGUUAUAUAGAGAUUGAUACCAGUUAAGAGAAUAGCCCUUGGCAGCAGAAAGAAGUAUCAUUAGAGAAGAAUG [ExTheophyl.Ac] | 256 | 182 | 222 | 213 | 177
GGUAGCAUGGCGGCCGCCACUUCGAAUAAGUGAUGUUUAUUUGACUGAGCACCCUAUGCCAUGUGAAGGACCGGGCCAUGCUACC | 147 | 138 | 157 | 208 | 200
ACGUGUCACUGAAGGAGCGUCUACCGAAUACGAGUGAUGUUGGUAUACCACUUAUAUAGUGGACAGGUAGGUCGCAGUGAUACGU [Arg B Ex t4] | 987 | 769 | 938 | 757 | 837
UGAUACCAGACUGAUACCAGCCACAGAGUCAAAGACUCUGAUAAAGGAACCAGUGAUGUUGGCCCUUGGCAGCAGUCUGGUAUCU [TheoBX 24 #SwitchBubble #StaticStem] | 131 | 113 | 118 | 107 | 156
GCCGUAGAUGGAAGGAGCGUGGUGGACUCGUGAAGUGAUGUUUCAAGUCGUUAUGCCCAACCACAGGUAGGUCGCCAUCUACGGC | 277 | 204 | 270 | 231 | 251
AACCGCCAGUCGGCCGCCACUCACAGCAGUGAUGUUGCUGAAAAUCUAAAAGAGUGAUGUUCUUAGAGGACCGGGACUCCAGGCG [Same State Tryptophan B GF 5] | 260 | 76.9 | 218 | 56.7 | 145
GCCGUAGAUGGAAGGAGCGUGUCAAAGUGAUGUUUUGAUUAACUCCCUACGGGAUAGAUGACACAGGUAGGUCGCCAUCUACGGC | 65.2 | 79.3 | 86.9 | 115 | 65.3
UGUAUGUGAUUUGAUACCAGACAAGCAGGUGUGACAAGAGUGAUGUUCUUGAUGGUUUGGGUCCCUUGGCAGCAAAUCGCAUACU [KL-SSTheoB16] | 194 | 145 | 178 | 141 | 154
AGGAGCGUGGGAUGGAAAUCGCACGCUCCUCGAGGACCGGUACGGCCGCCACUCGCUCGCGCCGAGUGAUGUUCGGCCGGCGAAG [#2 Same State - Tryptophan A Attempt #15 (HarryS)] | 579 | 194 | 128 | 129 | 226
AGAGUUGACGAAAAGUCAACUCUACGAGAAGGAGCGCACGAAAGUGCAGGUAGGUCGCUCAGUCCAGUGAUGUUGGAACAUAAAA [#OpenEnded 8] | 59.7 | 101 | 68.8 | 84.1 | 59.2
UGAUACCAGACGGCCGCCACUUCUGCAAGUCAAAGACUUGCUAAAGGAAUCGUCCAGUGAUGUUGGAGGACCGGGUCUGGUAUCU [FiskerMod 1 - Jieux - Exclusion - Tryptophan B] | 1020 | 823 | 1170 | 638 | 772
GUGACACGUGAUGAUACCAGUCCACGGAAGUUCCUUAGUGAUGUUAACCUUGCUUUUUCUGACCCUUGGCAGCAUUAGUUGAGAA [theeternabot_sameState_KL_Theo_B_42] | 332 | 166 | 204 | 304 | 237

Sequence | apparent KD of K4 kissing-loop reporter (input ligand: FMN 200 uM) [nM] | apparent KD of K4 kissing-loop reporter (input ligand: arginine 13.2 mM) [nM] | apparent KD of K4 kissing-loop reporter (input ligand: none) [nM] | apparent KD of K4 kissing-loop reporter [1] [nM] | apparent KD of K4 kissing-loop reporter [2] [nM]
AGGCGCUUAAGUCAGUGAUGUUGAUUAUAUCGAGGACCGGUACGGCCGCCACUCGGCUUUCAUCCGCCAUCGUAGUCCUAAAACC [theeternabot_sameState_KL_Trp_A_25] | 498 | 490 | 559 | 534 | 549
GUCAGACCGGGACUCCAGUGAUGUUGGAGGCAGGAUAUCCAGUCGAGGAGAAGGGCCAGGGAUAUCGAGCUGCUCGGUUUGUAGU [Xexezaes] | 72.4 | 108 | 77.3 | 102 | 67.4
UAAGAUAUAAGGGAUACCAGCCAUAAGGAAAGUGUGAUGAGUGAUGUUCUGACAAGCCAAGGCCCUUGGCAGCUUUAAUAGCAUC [Theophylline B Same State; Euphoria Solution] | 303 | 198 | 471 | 263 | 235
UUGGCCCGGCCGGAAGGCCGGGCCUGCGAGCGAGGACCGGUACGGCCGCCACUCGGCGCAGUGAUGUUGCGUGGCCGCAAGGCCG [#2 Exclusion - Tryptophan A Attempt #1 (HarryS)] | 370 | 337 | 439 | 581 | 874
GUAUCGCUAGGAGGAUAUUUCAAUUCGCCUAUAAUAGGUGAUACGGAGUGAUGUUCCGAUUUACGGAAAGAAGGCCUAGUGAUAC [FMN B 10] | 144 | 229 | 244 | 239 | 237
CCUAGUCGGAUACUCAAUCCAAUGCGAGAUACCAGCGGUCUUACGCGCCCUUGGCAGCUCAUAAUGAUGAACCAGUGAUGUUGGG [theeternabot_sameState_KL_Theo_A_40] | 423 | 268 | 397 | 446 | 368
AGCUCAGAGUGACUCGAUAAGAGUCACAAACGAGGACCGGUACGGCCGCCACUCGAAAUAACGAGAGUGAUGUUCUCGCUGGGCA [FiskerMod 1 - Jieux - Same State Tryptophan A] | 829 | 463 | 1010 | 540 | 296
GCCGUACGCAUGGAUACCAGCAAUUAUGCUCGUAUCCUAGUGAUGUUAGUGGCGAAUAUUUGCCCUUGGCAGCCAUGCGUACGGC | 1080 | 841 | 1160 | 691 | 936
CAUACUAUCAGAAGGAGCGUGGAAUAUUCAUCUGUAUCUAAUACGAGUGAUGUUCGUAAUUCACAGGUAGGUCGCUGAUUAAUAC [whbob_Ex_Arginine_B_2th159] | 265 | 272 | 267 | 269 | 219
GGGUUUGCCGGAAGGAGCGCACUAUGGAGUGAUGUUCCAUGACCGCACAGCUUGCGGUCAGUGCAGGUAGGUCGCCGGUAACGUU [Enatbeve] | 237 | 181 | 180 | 201 | 194
GGGCGCGGCGCGGCCGCCACUGGGCCUGGGCGCUCGCUGAGUGAUGUUCGUCGGCGGCUGGGUCGUAGGACCGGGUGCCGGCUGG [BDazzled - #4 SS Tryptophan B] | 735 | 533 | 1320 | 627 | 269
AGACUACUGAUAGGAUAUAACAUACUAGCUCGUAUACCAAAGGUAUACGAGCACCUUCUAGUGAUGUUAGAAGGGUCGGUAGUCA [Omei KL FMN B Exc B v3] | 301 | 104 | 108 | 109 | 117
CGCGCGCGUUGAGAGGCGCGCGCGAAUGAUACCAGUAUAUAAGAAUACCCUUGGCAGCAUAAGAAAGAUAUAGUGAUGUUGUAUA [SSTheophA.E] | 67.3 | 264 | 293 | 466 | 188
UGUCAUUGGUCUGAUACCAGAAGAUAUUCUGGAGUGAUGUUCCAAGUACGACAAAGUCGCUUCCCUUGGCAGCAGACCGAUGACU [TheoBS 20 #SwitchBubble 13 #StaticStem] | 471 | 195 | 617 | 501 | 690
UGACUGGACUGAAGGAGCGCUAAACUCCUAGUGAUGUUAGGGAACCGAGACAAAGUCUCGAGGCAGGUAGGUCGCAGUCUAGUCU [FiskerMod 2 - Jieux - Same State - Arginine B] | 295 | 253 | 307 | 359 | 288
AAGGUUGUGCAUGGGAGUGAUGUUCCCACGCAGGAUAUCGCUCACGCGAGAAGGGCGAGCACAACCGCUCAAGAAACUUGAGCAA [Omei KL FMN A SS C v2] | 133 | 118 | 133 | 106 | 126
AAACGCUGGUGAAUAACACUAGCGAAUUCGCGAGGACCGGUACGGCCGCCACUCGCUAACUGCGAGUGAUGUUCGAUAAUAAAAU [Mat - Mod of OpenEnded 3 - D2] | 141 | 107 | 154 | 189 | 142
AUCUUGUUUGGAGGAUAUUCUUUAUUUGACAUAACCUUCUAUAAGGUGCAGUGAUGUUGCAAUAUAGGAGAAGGUCGAGUGAGAU [Exclusion FMN B GF 18] | 190 | 160 | 188 | 202 | 177
ACUUAGAAUGAAGGAUAUUGGUUACGAGGGCUAACCAAAACGGAUCACUUGUCCAGUGAUGUUGUCCAAGAAGGUCACGUUAAAC [theeternabot_exclusion_KL_FMN_B_44] | 776 | 665 | 868 | 492 | 576
AAGAGCUAGGCGGCCGCCACUAGUUGUGAACACAUACAAGCCAGUGAUGUUGGUAUGGUGGACGGUAGGACCGGGCCUAGCUGAA [Exclusion - Tryptophan B (Freestyle 16)] | 180 | 229 | 224 | 259 | 283
GUGUGACUAGUGAUGUUGGUUGCGUGGGAAGGAGCGCAGUAAAAUGCAGGUAGGUCGCCCGUAUCUCUGAUAAAAGAUUAAUUCA [KL-SSArg-A10] | 181 | 128 | 158 | 137 | 153
